Experimental data as given in article PMC4749557.

Experiments:
[1] = target: 12 clones that bound to human PRDM14 (monobodies; the members other than Mb(S4) and Mb(S14) are not given); experiment: yeast surface display; KD of monobody clones displayed on yeast for hPRDM14
[2] = target: Mb(hPRDM14_S14) displayed on the yeast surface; experiment: as above
[3] = target: Mb(hPRDM14_S14) displayed on the yeast surface; experiment: yeast surface display; monobodies on the yeast surface with 50 nM of hPRDM14 or a homologue

B1: human PRDM14 (residues 238–487) (domain or fragment)
chain: LPQTLDKDSLQLPEGLCLMQTVFGEVPHFGVFCSSFIAKGVRFGPFQGKVVNASEVKTYGDNSVMWEIFEDGHLSHFIDGKGGTGNWMSYVNCARFPKEQNLVAVQCQGHIFYESCKEIHQNQELLVWYGDCYEKFLDIPVSLQVTEPGKQPSGPSEESAEGYRCERCGKVFTYKYYRDKHLKYTPCVDKGDRKFPCSLCKRSFEKRDRLRIHILHVHEKHRPHKCSTCGKCFSQSSSLNKHMRVHSGDR
modifications: biotin (biotin-acceptor tag)
- Kd [1]: < 100 nM
- Kd [2]: < 100 nM
- fold stronger binding than hPRDM6 and hPRDM12 [3]: > 5 fold
